Results on eleven molecules are retold here after US20130177981A1 (WISCONSIN ALUMNI RESEARCH FOUNDATION, published 2013).

In general, Ki refers to a measure of affinity in units of concentration, obtained from inhibition or displacement. Lower therefore signals higher affinity.

Read-outs that look alike come from different tables or passages of the source. Where no end group is shown, it is not given here. [ ]: non-standard residue; d: D form. APC = trans-3-aminopyrrolidine-4-carboxylic acid; ACPC = trans-2-aminocyclopentanecarboxylic acid; β3hR = N=C(N)NCCC[C@H](N)CC(=O)O; β3hT = C[C@@H](O)[C@H](N)CC(=O)O; β3hE = N[C@@H](CCC(=O)O)CC(=O)O; β3hA = C[C@H](N)CC(=O)O

The target of series [1] is T1, NHR α-peptide 1 (HIV, N-terminus acetyl-capped).
T1 construct: Forms a six-helix bundle (three NHR and three CHR helices) when mixed with CHR peptides; also called NHR peptide 1
Nature of the series: CD at 222 nm, thermal unfolding, 20 µM total peptide in PBS.

For series [2], the target named is T2, gp41-5 (HIV).
T2 construct: also called gp41-5 protein construct; five-helix bundle protein
Nature of the series: competition FP; displacement of Flu-C38 from gp41-5.

For series [3], the target named is T2, gp41-5. Put plainly: competition FP on gp41-5.
Series [4] deals with T2, gp41-5. Nature of the series: competition FP; displacement of Flu-C38 from gp41-5. The source holds these as a separate data set.
The target in series [5] is T2, gp41-5. The description is as above. The source holds these as a separate data set.
Series [6] has as its target T1, NHR α-peptide 1. Nature of the series: CD at 222 nm, thermal unfolding, 20 µM total peptide in PBS. The source holds these as a separate data set.
Series [7] has as its target T3, gp41 of the envelope glycoprotein of the HIV-1 clone HxB2 (HIV-1 clone HxB2, UniProt P04578 33-856). Put plainly: cell-based or functional assay.
Series [8] addresses gp41 of HIV-1 strain DJ258 (HIV-1 strain DJ258). Put plainly: cell-based or functional assay.
The target in series [9] is gp41 of HIV-1 strain CC 1/85 (HIV-1 strain CC 1/85). Put plainly: cell-based or functional assay.
Series [10] addresses T3, gp41 of the envelope glycoprotein of …. Nature of the series: cell-based or functional assay. The source holds these as a separate data set.
The target in the next series is gp41 of HIV-1 strain HC4 (HIV-1 strain HC4). Nature of the series: cell-based or functional assay.
Series [11] has as its target gp41 of HIV-1 strain NL4-3 (HIV-1 strain NL4-3). Put plainly: cell-based or functional assay.
Series [12] concerns the molecule itself. Nature of the series: crystal structure of 10 alone (self-assembly).

B1: chimeric CHR α/β-peptide 8 (peptide)
peptide: Ac-TTWEAWDRAIAEYA[ACPC]RIE[ACPC]LI[APC]AAQ[β3hE]QQ[β3hE]KNE[ACPC]AL[APC]EL-NH2
modifications: not fully specified
notes: Made from 7 by replacing two β3-hArg residues with APC
Consider B1, for which the “Tm,app of the 1:1 NHR + CHR mixture” value with NHR α-peptide 1 [1] amounted to 65 ° C.

In the series with gp41-5 [2], Ac-[β3hR]TWE[β3hE]WD[β3hR]AIA[β3hE]YA[β3hR]RIE[β3hE]LI[β3hR]AAQ[β3hE]QQ[β3hR]KNE[β3hE]AL[β3hR]EL-NH2 (also called compound 17; peptide 17) [α/β foldamer 17] returned a Ki of 11 nM.

For Ac-[β3hT]TWE[ACPC]WD[β3hR]AIA[β3hE]YA[ACPC]RIE[ACPC]LI[β3hR]AAQ[β3hE]QQ[β3hE]KNE[ACPC]AL[β3hR]EL (not fully specified, to be checked against the listing) [α/β-peptide 9], in the series with gp41-5 [3], the “fold higher affinity than 4” value amounted to 50 fold and the “fold improvement in Ki relative to 4” value was over 45 fold. The molecule further showed an inhibition constant Ki in the series with gp41-5 [4] of 83 nM. For the same molecule, in the series with gp41-5 [5], the inhibition constant Ki amounted to 83 nM.

B2: α/β-peptide 6 (peptide)
peptide: Ac-TTWEAWDRAIAEYA[β3hA]RIE[β3hA]LI[β3hR]AAQ[β3hE]QQ[β3hE]KNE[β3hA]AL[β3hR]EL
notes: also called (α+α/β)-peptide 6; oligomer 6
For the molecule B2, the Ki with gp41-5 [4] and in the series with gp41-5 [5] was 15 nM in each case.

B3: α/β-peptide 10 (peptide)
peptide: Ac-[β3hT]TWE[ACPC]WD[APC]AIA[β3hE]YA[ACPC]RIE[ACPC]LI[APC]AAQ[β3hE]QQ[β3hE]KNE[ACPC]AL[APC]EL-NH2
notes: Made from 9 by replacing the three β3-hArg residues with APC; also called foldamer 10
Take B3: in the series with gp41-5 [3], the “fold difference in affinity against 5” value is over 45 fold, the “fold enhanced binding relative to 4” value was about 380 fold and the “fold improvement in Ki relative to 9” value was about 10 fold. In addition, the “Tm of the 1:1 NHR + CHR mixture” value with NHR α-peptide 1 [6] amounted to 55 ° C. Besides, the “Cell-Cell Fusion IC50” value in [7] amounted to 5 nM. For the same molecule, the “Inhibition of HIV-1 infectivity, IC50 (nM), DJ258” value (from here on “Inhibition … DJ258”) in series [8] came to 110 nM. Further, the “Inhibition of HIV-1 infectivity, IC50 (nM), CC 1/85” value (“Inhibition … CC 1/85” for short) in series [9] was found to be 180 nM. For the same molecule, the “Cell-cell fusion inhibition IC50” value in series [10] stood at 5 nM. The “Inhibition of HIV-1 infectivity, IC50 (nM), HC4” value (shortened to “Inhibition … HC4”) with gp41 of HIV-1 strain HC4 turned out to be 59 nM. The “Inhibition of HIV-1 infectivity, IC50 (nM), NL4-3” value (“Inhibition … NL4-3” below) in series [11] came to 28 nM. Moreover, in the series with gp41-5 [4], the Ki stood at 9 nM. For the same molecule, the “Tm,app of the 1:1 NHR + CHR mixture” value with NHR α-peptide 1 [1] was determined as 55 ° C. This molecule also yielded an inhibition constant (Ki) in the series with gp41-5 [5] of 9 nM. In series [12], the binding result is listed as “binds”.

On to Ac-[β3hT]TWE[β3hA]WD[β3hR]AIA[β3hE]YA[β3hA]RIE[β3hA]LI[β3hR]AAQ[β3hE]QQ[β3hE]KNE[β3hA]AL[β3hR]EL (also called oligomer 4) [α/β-peptide 4], for which the “fold weaker binding than α-peptide 3” value with gp41-5 [3] is over 10000 fold. In [7], the “Cell-Cell Fusion IC50” value stood at 390 nM. For the same molecule, in series [8], the “Inhibition … DJ258” value was found to be 960 nM. In addition, in [9], the “Inhibition … CC 1/85” value turned out to be 1300 nM. The “Cell-cell fusion inhibition IC50” value in series [10] came out at 390 nM. Also, the “Inhibition … HC4” value with gp41 of HIV-1 strain HC4 was found to be 590 nM. For the same molecule, in [11], the “Inhibition … NL4-3” value came to 700 nM. Further, the Ki with gp41-5 [4] and with gp41-5 [5] was 3800 nM in each case.

B4: (α+α/β)-peptide 5 (peptide)
peptide: Ac-TTWEAWDRAIAEYAARIEALI[β3hR]AAQ[β3hE]QQ[β3hE]KNE[β3hA]AL[β3hR]EL
notes: Chimera of α-peptide 3 and α/β-peptide 4; also called oligomer 5
In the case of B4, the “Tm of the 1:1 NHR + CHR mixture” value with NHR α-peptide 1 [6] was found to be 69 ° C. The “Cell-Cell Fusion IC50” value in [7] is 7 nM. Besides, the “Inhibition … DJ258” value in series [8] amounted to 280 nM. The “Inhibition … CC 1/85” value in series [9] worked out at 270 nM. Moreover, in series [10], the “Cell-cell fusion inhibition IC50” value is 7 nM. Besides, in the series with gp41 of HIV-1 strain HC4, the “Inhibition … HC4” value was 55 nM. Besides, the “Inhibition … NL4-3” value in series [11] was 10 nM. Besides, the figures for the Ki with gp41-5 [4] and with gp41-5 [5] were under 0.2 nM and 0.2 nM, respectively. For the same molecule, the “Tm,app of the 1:1 NHR + CHR mixture” value with NHR α-peptide 1 [1] was 67 ° C.

Regarding Ac-TTWEAWDRAIAEYAARIEALIRAAQEQQEKNEAALREL (also called T-2635; CHR α-peptide 3) [α-peptide 3], the “Tm of the 1:1 NHR + CHR mixture” value with NHR α-peptide 1 [6] stood at 77 ° C. For the same molecule, the “Cell-Cell Fusion IC50” value in series [7] was found to be 9 nM. Further, the “Inhibition … DJ258” value in series [8] amounted to 58 nM. The “Inhibition … CC 1/85” value in [9] is 140 nM. Moreover, the “Cell-cell fusion inhibition IC50” value in series [10] was found to be 9 nM. The “Inhibition … HC4” value in the series with gp41 of HIV-1 strain HC4 was found to be 27 nM. In [11], the “Inhibition … NL4-3” value worked out at 5 nM. Moreover, the Ki with gp41-5 [4] was under 0.2 nM; with gp41-5 [5], 0.2 nM. The “Tm,app of the 1:1 NHR + CHR mixture” value with NHR α-peptide 1 [1] was found to be 77 ° C.

B5: α/β-peptide 11 (peptide)
peptide: Ac-A[β3hE]YA[ACPC]RIE[ACPC]LI[APC]AAQ[β3hE]QQ[β3hE]KNE[ACPC]AL[APC]EL
notes: also called oligomer 11; truncated α/β-peptide 11
Turning to B5, the Ki in the series with gp41-5 [4] was over 10000 nM.

Ac-[β3hR]TWE[β3hE]WD[β3hR]AIA[β3hE]YA[ACPC]RIE[ACPC]LI[APC]AAQ[ACPC]QQ[APC]KNE[ACPC]AL[APC]EL-NH2 (not fully specified, also called compound 16; peptide 16) [α/β foldamer 16] registered an inhibition constant Ki with gp41-5 [2] of 3 nM.

As for Ac-TTWEAWDRAIAEYA[ACPC]RIE[ACPC]LI[β3hR]AAQ[β3hE]QQ[β3hE]KNE[ACPC]AL[β3hR]EL (also: other residues as in 6, also called oligomer 7) [α/β-peptide 7], in the series with gp41-5 [3], the “fold higher affinity relative to 6” value is over 30 fold and the “fold improvement in binding relative to 6” value was found to be 40 fold. The molecule further came in with a Ki in the series with gp41-5 [4] of 0.4 nM. For the same molecule, the Ki with gp41-5 [5] stood at 0.4 nM.
